Results reported in patent publication US20080146512A1 (published 2008).

B1: p16 (INK4a) (other, human, UniProt P42771 1-156, looked up)
chain: MEPAAGSSMEPSADWLATAAARGRVEEVRALLEAGALPNAPNSYGRRPIQVMMMGSARVAELLLLHGAEPNCADPATLTRPVHDAAREGFLDTLVVLHRAGARLDVRDAWGRLPVDLAEELGHRDVARYLRAAAGGTRGSNHARIDAAEGPSDIPD
notes: Endogenous protein co-immunoprecipitated with Cdk4 from SCC-1 cell homogenates and detected with a commercial p16 antibody

How the values were obtained:
[1] = target: opioid growth factor receptor (OGFr) (human) (UniProt Q9NZT2); experiment: cell-based or functional assay
Sequence of opioid growth factor receptor (OGFr) (human) (Q9NZT2 whole entry): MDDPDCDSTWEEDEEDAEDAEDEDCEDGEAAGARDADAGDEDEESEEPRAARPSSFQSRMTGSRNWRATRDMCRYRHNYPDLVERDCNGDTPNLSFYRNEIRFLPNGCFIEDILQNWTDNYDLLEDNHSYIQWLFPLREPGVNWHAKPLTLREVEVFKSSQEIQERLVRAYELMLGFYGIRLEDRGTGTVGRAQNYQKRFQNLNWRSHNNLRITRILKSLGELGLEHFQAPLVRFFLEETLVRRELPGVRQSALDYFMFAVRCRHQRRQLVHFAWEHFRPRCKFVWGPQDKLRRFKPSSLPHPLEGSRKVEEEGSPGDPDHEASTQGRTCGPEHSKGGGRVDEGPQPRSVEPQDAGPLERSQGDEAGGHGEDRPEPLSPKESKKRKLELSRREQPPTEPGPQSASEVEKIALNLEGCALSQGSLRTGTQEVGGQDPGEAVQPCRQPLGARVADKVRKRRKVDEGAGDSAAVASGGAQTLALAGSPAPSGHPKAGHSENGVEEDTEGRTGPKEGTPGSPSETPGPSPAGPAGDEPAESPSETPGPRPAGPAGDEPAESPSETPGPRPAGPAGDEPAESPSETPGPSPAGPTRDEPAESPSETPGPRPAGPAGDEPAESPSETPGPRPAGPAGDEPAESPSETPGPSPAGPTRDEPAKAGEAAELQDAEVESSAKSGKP

Cdk4 = target: T1, Cdk4 (human, UniProt P11802 2-303); experiment: Cdk4 immunoprecipitation from SCC-1 cell homogenates, Western blot with p16 antibodies
T1 construct: Endogenous protein immunoprecipitated from SCC-1 cell homogenates with a commercial polyclonal Cdk4 antibody; also called Cdk4 kinase
T1 sequence (P11802 2-303 limits assumed): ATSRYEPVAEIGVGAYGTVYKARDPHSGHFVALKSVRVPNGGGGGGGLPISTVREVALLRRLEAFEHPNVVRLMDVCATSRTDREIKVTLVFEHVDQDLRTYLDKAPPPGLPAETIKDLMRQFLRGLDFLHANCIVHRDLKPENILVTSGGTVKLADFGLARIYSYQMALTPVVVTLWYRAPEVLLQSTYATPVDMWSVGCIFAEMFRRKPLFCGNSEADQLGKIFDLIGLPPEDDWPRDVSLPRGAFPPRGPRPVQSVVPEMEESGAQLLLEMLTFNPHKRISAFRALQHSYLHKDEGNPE
Text: Cell cycle progression depends on both positive and negative regulators.

| Molecule | growth of control siRNA-treated SCC-1 cells (cell number at 96 h) [1] | growth of wt SCC-1 cells (cell number at 96 h) [1] | binding result (Cdk4) |
| --- | --- | --- | --- |
| opioid growth factor (OGF), [Met5]-enkephalin (from UniProt P01210 100-104) (peptide) | 46% | 29% | – |
| B1 | – | – | binds |
